In this assay the target is seed (assembled NM protein, preformed fibers used to seed fiber elongation in Example 10) (Saccharomyces cerevisiae) (UniProt P05453). Description: seeded fiber elongation, sedimentation and wavelength shift assays, Lineweaver-Burk plot.
Sequence of seed (assembled NM protein, preformed fibers used to seed fiber elongation in Example 10) (Saccharomyces cerevisiae) (P05453 1-253): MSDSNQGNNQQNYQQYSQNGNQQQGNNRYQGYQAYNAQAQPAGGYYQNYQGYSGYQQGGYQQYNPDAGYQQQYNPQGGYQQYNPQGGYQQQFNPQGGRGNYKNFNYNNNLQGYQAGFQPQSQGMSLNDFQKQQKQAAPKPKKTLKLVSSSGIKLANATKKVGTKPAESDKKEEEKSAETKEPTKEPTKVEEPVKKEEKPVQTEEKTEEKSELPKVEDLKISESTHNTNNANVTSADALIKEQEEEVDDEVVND

Consider “NM^T158C-acrylodan (from UniProt P05453 1-253) (other; other documents disagree on this pair)”, for which the Km was 0.12 µM, the Vmax (maximal rate of conformational conversion) came out at 0.001 µmol/s, the kconf (rate constant of conformational conversion) is 0.005 s⁻¹ and the kconf/Km (conformational conversion efficiency) was determined as 42000 M⁻¹ s⁻¹.
